B1: modified version of TCR 9 (codon optimized, cysteine modified) (TCR)
TCR alpha: AQKITQTQPGMFVQEKEAVTLDCTYDTSDPSYGLFWYKQPSSGEMIFLIYQGSYDQQNATEGRYSLNFQKARKSANLVISASQLGDSAMYFCAMRTAGGTSYGKLTFGQGTILTVHPNIQNPDPAVYQLRDSKSSDKSVCLFTDFDSQTNVSQSKDSDVYITDKCVLDMRSMDFKSNSAVAWSNKSDFACANAFNNSIIPEDTFFPSPESSCDVKLVEKSFETDTNLNFQNLSVIGFRILLLKVAGFNLLMTLRLWSS
TCR beta: NAGVTQTPKFRVLKTGQSMTLLCAQDMNHEYMYWYRQDPGMGLRLIHYSVGEGTTAKGEVPDGYNVSRLKKQNFLLGLESAAPSQTSVYFCASSYFGTAYEQYFGPGTRLTVTEDLKNVFPPEVAVFEPSEAEISHTQKATLVCLATGFYPDHVELSWWVNGKEVHSGVCTDPQPLKEQPALNDSRYCLSSRLRVSATFWQNPRNHFRCQVQFYGLSENDEWTQDRAKPVTQIVSAEAWGRADCGFTSESYQQGVLSATILYEILLGKATLYAVLVSALVLMAMVKRKDSRG
B2: modified version of TCR 3 (codon optimized, cysteine modified) (TCR)
TCR alpha: AQKITQTQPGMFVQEKEAVTLDCTYDTSDQSYGLFWYKQPSSGEMIFLIYQGSYDEQNATEGRYSLNFQKARKSANLVISASQLGDSAMYFCAMREGRGFKTIFGAGTRLFVKANIQKPDPAVYQLRDSKSSDKSVCLFTDFDSQTNVSQSKDSDVYITDKCVLDMRSMDFKSNSAVAWSNKSDFACANAFNNSIIPADTFFPSPESSCDVKLVEKSFETDTNLNFQNLSVIGFRILLLKVAGFNLLMTLRLWSS
TCR beta: GAGVSQSPRYKVAKRGQDVALRCDPISGHVSLFWYQQALGQGPEFLTYFQNEAQLDKSGLPSDRFFAERPEGSVSTLKIQRTQQEDSAVYLCASSHLAGFTGELFFGEGSRLTVLEDLKNVFPPEVAVFEPSEAEISHTQKATLVCLATGFYPDHVELSWWVNGKEVHSGVCTDPQPLKEQPALNDSRYCLSSRLRVSATFWQNPRNHFRCQVQFYGLSENDEWTQDRAKPVTQIVSAEAWGRADCGFTSESYQQGVLSATILYEILLGKATLYAVLVSALVLMAMVKRKDSRG
B3: TCR 10 (native, expressed by clonal T cell line) (TCR, V domains shown)
V domain 1: RKEVEQDPGPFNVPEGATVAFNCTYSNSASQSFFWYRQDCRKEPKLLMSVYSSGNEDGRFTAQLNRASQYISLLIRDSKLSDSATYLCVVNFPSRGAGGTSYGKLTFGQGTILTVHP
V domain 2: DVKVTQSSRYLVKRTGEKVFLECVQDMDHENMFWYRQDPGLGLRLIYFSYDVKMKEKGDIPEGYSVSREKKERFSLILESASTNQTSMYLCASSLSLTGNYGYTFGSGTRLTVVE
B4: modified version of TCR 8 (codon optimized, cysteine modified) (TCR, V domains shown)
V domain 1: KQEVTQIPAALSVPEGENLVLNCSFTDSAIYNLQWFRQDPGKGLTSLLLIQSSQREQTSGRLNASLDKSSGRSTLYIAASQPGDSATYLCAVRPLGNTPLVFGKGTRLSVIA
V domain 2: KVTQSSRYLVKRTGEKVFLECVQDMDHENMFWYRQDPGLGLRLIYFSYDVKMKEKGDIPEGYSVSREKKERFSLILESASTNQTSMYLCASSLWGASTDTQYFGPGTRLTVLE

Experiments:
[1] = molecular target: HPV 16 E6(29-38) peptide in the context of HLA-A02:01 on target cells (human; HPV 16); assay: cell-based or functional assay
[2] = molecular target: HPV 16 E7(11-19) peptide in the context of HLA-A02:01 on target cells (human; HPV 16); assay: cell-based or functional assay
[3] = molecular target: T1, HLA-A2/E6 (29-38) tetramer (human; HPV 16); assay: tetramer flow cytometry; transfected Jurkat-derived cells, CD8+ population
T1 construct: also called E6(29-38) peptide-MHC tetramer; E6(29-38)-loaded tetramer
Method: For transfection, the CD4+ and CD4+/CD8+ cell mixtures were transiently transfected with TCR-encoding plasmids and 48 hours after transfection, cells were assessed by flow cytometry for (1) binding of the target peptide in the context of an MHC molecule (HLA:A02:01) by staining with an E6(29-38) peptide- or an E7(11-19) peptide-MHC tetramer reagent, and/or (2) CD8+ independent binding of the target by co-staining the tetramer-labeled cells with an anti-CD8 antibody.

[4] = molecular target: T1, HLA-A2/E6 (29-38) tetramer; assay: tetramer staining of clonal T cell line, flow cytometry

Binder	% CD8+/IC IFNγ+; transduced primary CD8+ T cells with T2 cells pulsed with 10 uM E6(29-38) peptide, E:T 10:1, 4 h [1] [%]	% CD8+/IC IFNγ+; transduced primary CD8+ T cells with T2 cells pulsed with 10 uM E7(11-19) peptide (control peptide), E:T 10:1, 4 h [2] [%]	% cells in E6 tet+/CD8+ quadrant [3] [%]	% cells in E6 tet+/CD8- quadrant [3] [%]	% cells in E6 tet-/CD8+ quadrant [3] [%]	% cells in E6 tet-/CD8- quadrant [3] [%]	binding result [4]
B1	91.1	19.5	42.5	0.051	55.6	1.89	
B2	95.1	2.51					
B3							binds
B4	95	11.4					

From patent US20190225692A1 (JUNO THERAPEUTICS, published 2019)
